B1: HDV Ribozyme (parent)
chain: GGCCGGCAUGGUCCCAGCCUCCUCGCUGGCGCCGGCUGGGCAACAUUCCGAGGGGACCGUCCCCUCGGUAAUGGCGAAUGGGACCCA

This data set covers variants of B1. The data set is described as follows: self-cleavage, relative activity (ratio to wild type); higher = more cleavage; co-transcriptional.
For GGCCGGCAUGGUCCCAGCCUCCUCGCUGGCGCCGGCUGGGCAACAUUCCGAGGGGACCGUCCCCUCGGUAUCGGCGAAUGGGACCCA [A71U U72C], the self-cleavage is 0.57. GGCCGGCAUGGUCCCAGCCUCCUCGCUGGCGCCGGCUGGGCAACAUUCCGAGGGGACCGUCCCCUCGGUAACGGCGAAUAGGACCCA [U72C G80A]: the self-cleavage was determined as 0.138. Then GGCCGGCAUGGUCCCAGCCUCCUCGCUGGCGCCGGCUGGGCAACAUUCCGAGGGGACCGUCCCCUCGGUAACGACGAAUGGGACCCA [U72C G74A], with 0.363; and GGCCGGCAUGGUCCCAGCCUCCUCGCUGGCGCCGGCUGGGCAACAUUCCGAGGGGACCGUCCCCUCGGUAACGCCGAAUGGGACCCA [U72C G74C], with 0.26; and GGCCGGCAUGGUCCCAGCCUCCUCGCUGGCGCCGGCUGGGCAACAUUCCGAGGGGACCGUCCCCUCGGUAGUGGCGAAUGGUACCCA [A71G G82U], with 0.312.

Regarding GGCCGGCAUGGUCCCAGCCUCCUCGCUGGCGCCGGCUGGGCAACAUUCCGAGGGGACCGUCCCCUCGGUAGUGGCGAAUGGAACCCA [A71G G82A], the self-cleavage is 0.538. GGCCGGCAUGGUCCCAGCCUCCUCGCUGGCGCCGGCUGGGCAACAUUCCGAGGGGACCGUCCCCUCGGUAUUGGCGAAUCGGACCCA [A71U G80C]: the self-cleavage amounted to 0.185. In the case of GGCCGGCAUGGUCCCAGCCUCCUCGCUGGCGCCGGCUGGGCAACAUUCCGAGGGGACCGUCCCCUCGGUAUUGGCGAAUUGGACCCA [A71U G80U], the self-cleavage came to 0.21. For GGCCGGCAUGGUCCCAGCCUCCUCGCUGGCGCCGGCUGGGCAACAUUCCGAGGGGACCGUCCCCUCGGUAAGGGCGAAUGCGACCCA [U72G G81C], the self-cleavage was determined as 0.0791.

Consider GGCCGGCAUGGUCCCAGCCUCCUCGCUGGCGCCGGCUGGGCAACAUUCCGAGGGGACCGUCCCCUCGGUAAAGGCGAAUGGGACCGA [U72A C86G], for which the self-cleavage came out at 0.674. Consider GGCCGGCAUGGUCCCAGCCUCCUCGCUGGCGCCGGCUGGGCAACAUUCCGAGGGGACCGUCCCCUCGGUAACGGCGCAUGGGACCCA [U72C A77C], for which the self-cleavage was 0.246.

As to GGCCGGCAUGGUCCCAGCCUCCUCGCUGGCGCCGGCUGGGCAACAUUCCGAGGGGACCGUCCCCUCGGUAAGGGCCAAUGGGACCCA [U72G G76C], the self-cleavage was 0.594.

Take GGCCGGCAUGGUCCCAGCCUCCUCGCUGGCGCCGGCUGGGCAACAUUCCGAGGGGACCGUCCCCUCGGUAAGGGCUAAUGGGACCCA [U72G G76U]: the self-cleavage is 0.646.

Regarding GGCCGGCAUGGUCCCAGCCUCCUCGCUGGCGCCGGCUGGGCAACAUUCCGAGGGGACCGUCCCCUCGGUAUUGGCGAAUGAGACCCA [A71U G81A], the self-cleavage stood at 0.277.

As to GGCCGGCAUGGUCCCAGCCUCCUCGCUGGCGCCGGCUGGGCAACAUUCCGAGGGGACCGUCCCCUCGGUAAGGGCGAAAGGGACCCA [U72G U79A], the self-cleavage was found to be 0.534. Regarding GGCCGGCAUGGUCCCAGCCUCCUCGCUGGCGCCGGCUGGGCAACAUUCCGAGGGGACCGUCCCCUCGGUAAGGGCGAACGGGACCCA [U72G U79C], the self-cleavage worked out at 0.297. As for GGCCGGCAUGGUCCCAGCCUCCUCGCUGGCGCCGGCUGGGCAACAUUCCGAGGGGACCGUCCCCUCGGUAAAGUCGAAUGGGACCCA [U72A G74U], the self-cleavage was determined as 0.397. Then GGCCGGCAUGGUCCCAGCCUCCUCGCUGGCGCCGGCUGGGCAACAUUCCGAGGGGACCGUCCCCUCGGUAACGGCGAAUGGGACCCG [U72C A87G], with 0.712; and GGCCGGCAUGGUCCCAGCCUCCUCGCUGGCGCCGGCUGGGCAACAUUCCGAGGGGACCGUCCCCUCGGUAACGGCGAAUGGGACCCC [U72C A87C], with 0.597. To GGCCGGCAUGGUCCCAGCCUCCUCGCUGGCGCCGGCUGGGCAACAUUCCGAGGGGACCGUCCCCUCGGUAUUGGCGAAUGGAACCCA [A71U G82A] belongs 0.365; to GGCCGGCAUGGUCCCAGCCUCCUCGCUGGCGCCGGCUGGGCAACAUUCCGAGGGGACCGUCCCCUCGGUAAGGGCGACUGGGACCCA [U72G A78C], 0.0831; to GGCCGGCAUGGUCCCAGCCUCCUCGCUGGCGCCGGCUGGGCAACAUUCCGAGGGGACCGUCCCCUCGGUAAGGGCGAGUGGGACCCA [U72G A78G], 0.426.

GGCCGGCAUGGUCCCAGCCUCCUCGCUGGCGCCGGCUGGGCAACAUUCCGAGGGGACCGUCCCCUCGGUAACGGCGAAUGGGACUCA [U72C C85U]: the self-cleavage came out at 0.511.

As to GGCCGGCAUGGUCCCAGCCUCCUCGCUGGCGCCGGCUGGGCAACAUUCCGAGGGGACCGUCCCCUCGGUAUUGGCGUAUGGGACCCA [A71U A77U], the self-cleavage stood at 0.415. On to GGCCGGCAUGGUCCCAGCCUCCUCGCUGGCGCCGGCUGGGCAACAUUCCGAGGGGACCGUCCCCUCGGUAUUGGCGGAUGGGACCCA [A71U A77G], for which the self-cleavage is 0.508.

With GGCCGGCAUGGUCCCAGCCUCCUCGCUGGCGCCGGCUGGGCAACAUUCCGAGGGGACCGUCCCCUCGGUAACGGCAAAUGGGACCCA [U72C G76A], the self-cleavage was determined as 0.962. Then GGCCGGCAUGGUCCCAGCCUCCUCGCUGGCGCCGGCUGGGCAACAUUCCGAGGGGACCGUCCCCUCGGUAACGGCUAAUGGGACCCA [U72C G76U], with 1.01. As for GGCCGGCAUGGUCCCAGCCUCCUCGCUGGCGCCGGCUGGGCAACAUUCCGAGGGGACCGUCCCCUCGGUAACGGCCAAUGGGACCCA [U72C G76C], the self-cleavage worked out at 0.779. To GGCCGGCAUGGUCCCAGCCUCCUCGCUGGCGCCGGCUGGGCAACAUUCCGAGGGGACCGUCCCCUCGGUAUUGGGGAAUGGGACCCA [A71U C75G] belongs 0.0852. To GGCCGGCAUGGUCCCAGCCUCCUCGCUGGCGCCGGCUGGGCAACAUUCCGAGGGGACCGUCCCCUCGGUAUUGGCGAAUGGGACCCG [A71U A87G] belongs 0.831; to GGCCGGCAUGGUCCCAGCCUCCUCGCUGGCGCCGGCUGGGCAACAUUCCGAGGGGACCGUCCCCUCGGUAUUGGCGAAUGGGACCCU [A71U A87U], 0.897; to GGCCGGCAUGGUCCCAGCCUCCUCGCUGGCGCCGGCUGGGCAACAUUCCGAGGGGACCGUCCCCUCGGUAAAGGCGACUGGGACCCA [U72A A78C], 0.125.
